{"source": "paper PMC9547493", "about": "(2020)", "binders": {"B1": {"name": "CeiPGM (cofactor-independent phosphoglycerate mutase) (protein)", "chain": "MFVALGAQIYRQYFGRRGMAMANNSSVANKVCLIVIDGWGVSEDPYGNAILNAQTPVMDKLCSGNWAQIEAHGLHVGLPEGLMGNSEVGHLNIGAGRVIYQDIVRINLAVKNNKFVTNESLVDACDRAKNGNGRLHLAGLVSDGGVHSHIDHMFALVKAIKELGVPELYLHFYGDGRDTSPNSGVGFLEQTLEFLEKTTGYGKLATVVGRYYAMDRDNRWERINVAYEAMIGGVGETSDEAGVVEVVRKRYAADETDEFLKPIILQGEKGRVQNDDTIIFFDYRADRMREISAAMGMDRYKDCNSKLAHPSNLQVYGMTQYKAEFPFKSLFPPASNKNVLAEWLAEQKVSQFHCAETEKYAHVTFFFNGGLEKQFEGEERCLVPSPKVATYDLQPEMSAAGVADKMIEQLEAGTHPFIMCNFAPPDMVGHTGVYEAAVKACEATDIAIGRIYEATQKHGYSLMVTADHGNAEKMKAPDGGKHTAHTCYRVPLTLSHPGFKFVDPADRHPALCDVAPTVLAIMGLPQPAEMTGVSIVQKI"}}, "key": {"CeiPGM-γCp(SRR)": {"molecular_target": "T1, CeiPGM-γCp(SRR) (synthetic construct, thioether N-14)", "T1 chain": "{γCp(SRR)}-FSISGIEWNGPEIC", "assay": "SPR"}, "CeiPGM-γCp(RSS)": {"molecular_target": "T2, CeiPGM-γCp(RSS) (synthetic construct, thioether N-14)", "T2 chain": "{γCp(RSS)}-FSISGIEWNGPEIC", "assay": "SPR"}}, "note": "Bridge positions count the residues as written; N and C are the ends. Ends that are not written are not given here. γCp(RSS) = N-terminal (R,S,S)-cyclopropane γ-amino acid; γCp(SRR) = N-terminal (S,R,R)-cyclopropane γ-amino acid", "data": [{"binder": "B1", "values": [{"measurement": "Kd", "setting": "CeiPGM-γCp(SRR)", "result": 0.8, "unit": "nM"}, {"measurement": "Kd", "setting": "CeiPGM-γCp(RSS)", "result": 0.3, "unit": "nM"}]}]}
